Substrate: NC(=O)C[C@H](N)C(=O)O
Assay: purified protein
Conditions: PBS pH 7.2, 37 °C, 1-200 mM asparagine

B1: PtAsp2like1 (Picrophilus oshimae DSM 9789) (protein)
chain: MNVIMLHGGAGSTGVEQKLMEYAVKSKSGSALDSVCNAVVLMENDPCFNAGTGSCMRLDGSIQMDAAVMTSKGFGSVMAIENVKNPVLVARAVMERSPHLIMAGDGAEKFAHLLGFEKYDPSTERAAKRRENDISMILSRKIDSYNKMMETVDISKFVDTVGAVARVNGEFAAAVSTGGAPPMLRGRVGDSPVPGAGIFCGENGAVVATGVGEEIIKNMLCISIYNEIGRESLSKIVMKNISRFRYHAGVIAVSNEEYFAYSNTDMSYAALEF
Km: 11.69 mM | kcat: 0.056 s⁻¹

From PMC9670692
